Here are results for five molecules from patent publication US9670514B2, “Method for producing polysaccharide” (SANYO CHEMICAL INDUSTRIES, LTD., priority 2011, dated 2017).

Data set [1] can be described thus: Enzyme activity ratio (Y1)=Vmax1/Vmax2 of conversion enzyme (Lineweaver-Burk). The note with it: each. It counts as biochemical. From the text:
In the present invention, in the case where ribonucleoside diphosphate conversion enzyme (D) is used, an enzyme activity ratio (Y1) calculated from the following formula (1) using enzyme activity Vmax1 and enzyme activity Vmax2 described below is preferably not lower than 0.1 in terms of efficient polysaccharide production and efficient use of the substrate (ribonucleoside diphosphate-monosaccharide (A)). Enzyme activity ratio (Y1)=Vmax1/Vmax2 (1) • Enzyme activity Vmax1: the enzyme activity of ribonucleoside diphosphate conversion enzyme (D) on ribonucleoside diphosphate. • Enzyme activity Vmax2: the enzyme activity of ribonucleoside diphosphate conversion enzyme (D) on ribonucleoside diphosphate-monosaccharide (A).
An enzyme reaction solution (II) containing specific amounts of substrate (ribonucleoside diphosphate or uridine diphosphate-monosaccharide (A)), enzyme (polysaccharide synthase (B) or ribonucleoside diphosphate conversion enzyme (D)), pH adjuster (K), and water is prepared, which is adjusted to a specific temperature and a specific pH. • Phosphate-containing compound (F) is added, if necessary, to the enzyme reaction solution (II) if the enzyme to be used is (D4). Reducing agent (d6) is added if the enzyme is (D6), and raw material (d7) of nucleotide sugar is added if the enzyme is (D7).
After preparation of the enzyme reaction solution (II), it is allowed to stand for enzyme reaction for 1 minute to 100 hours. Next, the amount (X) of the reaction product obtained from the reaction is measured to determine the initial enzyme reaction velocity v. Likewise, the initial enzyme reaction velocity v is determined, using the enzyme reaction solution (II) having a different substrate concentration. A Lineweaver-Burk plot is generated from the above-obtained initial enzyme reaction velocity v and substrate concentration, and the enzyme activity Vmax is determined therefrom.
The enzyme activity Vmax (M/s) is determined using Lineweaver-Burk plot derived from Michaelis-Menten kinetics. […]
In the above measurement, the result determined using ribonucleoside diphosphate conversion enzyme (D) as an enzyme and ribonucleoside diphosphate as a substrate represents Vmax1, and the result determined using ribonucleoside diphosphate conversion enzyme (D) as an enzyme and ribonucleoside diphosphate-monosaccharide (A) as a substrate represents Vmax2. In the case where two or more types of ribonucleoside diphosphate-monosaccharide (A) are used, Vmax2 is determined for each ribonucleoside diphosphate-monosaccharide (A). The enzyme activity ratio (Y1) is also determined for each type from formula (1) using each Vmax2. […]
Enzyme reaction solution (II-1) was prepared by adding the following to 1 mL of aqueous solution P (50 mM phosphate buffer (pH of 7.0) containing 100 mM sodium chloride and 10 mM magnesium chloride): a substrate (uridine diphosphate) to a concentration of 0.5 mM in the solution, sucrose (available from Wako Pure Chemical Industries, Ltd.) to a concentration of 100 mM in the solution, and 1 μL of sucrose synthase aqueous solution (D7-1). […] Enzyme reaction solution (II-1) was allowed to stand at 30° C. for enzyme reaction for 30 minutes while measuring the amount of the reaction product (uridine diphosphate-glucose) using HPLC at 5-minute intervals, and the initial enzyme reaction velocity v was calculated. […]

Data set [2] is described as follows: Specific activity of ribonucleoside diphosphate conversion enzyme solutions (TLC, UV 260 nm). The data set is classed as biochemical. The conditions noted are these: 1 mM uridine diphosphate, 30° C., pH 7.0, with the co-substrate of each enzyme. The procedure:
Reaction solution (2) was prepared by adding 10 μL of 1 M sucrose aqueous solution and 10 μL of sucrose synthase aqueous solution (D7-1) to 1 mL of aqueous solution R (50 mM phosphate buffer (pH of 7.0) containing 100 mM sodium chloride, 10 mM magnesium chloride, and 1 mM uridine diphosphate). Three such reaction solutions (2) were prepared and allowed to react at 30° C. for 5 minutes, 10 minutes, and 15 minutes, respectively. As for the amount of compound (C-7) as the reaction product (uridine diphosphate-glucose), the reaction product was developed on TLC (PEI-Cellulose plate available from Sigma-Aldrich Corporation, hereinafter the same) (developing solvent: an aqueous solution containing 1 M LiCl and 1 M formic acid, hereinafter the same), and detected with a UV light (260 nm). The specific activity of sucrose synthase aqueous solution (D7-1) was calculated to be 0.3 U/μL from the relationship between the yield of compound (C-7) and the reaction time.
Reaction solution (3) was prepared by adding 0.1 mg of reduced thioredoxin and 10 μL of ribonucleotide diphosphate reductase aqueous solution (D6-1) to 1 mL of aqueous solution R. Three such reaction solutions (3) were prepared and allowed to react at 30° C. for 5 minutes, 10 minutes, and 15 minutes, respectively. As for the amount of compound (C-6) as the reaction product (deoxyuridine diphosphate), the reaction product was developed on TLC and detected with a UV light (260 nm). The specific activity of ribonucleotide diphosphate reductase aqueous solution (D6-1) was calculated to be 0.3 U/μL from the relationship between the yield of compound (C-6) and the reaction time.
Reaction solution (4) was prepared by adding 10 μL of 1 M monopotassium phosphoenolpyruvate aqueous solution (available from Wako Pure Chemical Industries, Ltd.) and 10 μL of pyruvate kinase aqueous solution (D4-1-1) to 1 mL of aqueous solution R. Three such reaction solutions (4) were prepared and allowed to react at 30° C. for 5 minutes, 10 minutes, and 15 minutes, respectively. For the amount of compound (C-4) as the reaction product (uridine triphosphate), the reaction product was developed on TLC and detected with a UV light (260 nm). The specific activity of pyruvate kinase aqueous solution (D4-1-1) was calculated to be 0.3 U/μL from the relationship between the yield of compound (C-4) and the reaction time.
Reaction solution (5) was prepared by adding 10 μL of nucleotidase aqueous solution (D3-1) to 1 mL of aqueous solution R. Three such reaction solutions (5) were prepared and allowed to react at 30° C. for 5 minutes, 10 minutes, and 15 minutes, respectively. For the amount of compound (C-3) as the reaction product (uridine monophosphate), the reaction product was developed on TLC and detected with a UV light (260 nm). The specific activity of nucleotidase aqueous solution (D3-1) was calculated to be 0.3 U/μL from the relationship between the yield of compound (C-3) and the reaction time.
Reaction solution (6) was prepared by adding 1 mg of polyuridine (product name “polyuridylic acid potassium salt” available from Sigma-Aldrich Corporation) and 10 μL of polyribonucleotide nucleotidyltransferase aqueous solution (D5-1) to 1 mL of aqueous solution R. Three such reaction solutions (6) were prepared and allowed to react at 30° C. for 5 minutes, 10 minutes, and 15 minutes, respectively. […]

[3] abbreviates: Vmax2 substrates uridine diphosphate-glucuronic acid and uridine diphosphate-N-acetylglucosamine.
Where [4] appears, read: Vmax2 substrates UDP-glucuronic acid, -N-acetylglucosamine, -N-acetylgalactosamine, -glucose, -mannose, -glucosamine.

Where only a bound is given, the exact number is not on record here.

B1: ribonucleotide diphosphate reductase aqueous solution (D6-1): ribonucleotide diphosphate reductase, SEQ ID NO: 3, derived from Corynebacterium glutamicus (protein, listed as Corynebacterium glutamicum)
chain: MAADSDLSVHDAYLKEHVAPVKAINWNSIPDSKDLEVWDRLTGNFWLPEKVPVSNDIKSWGTLNEVEKAATMRVFTGLTLLDTIQGTVGAISLLPDADSLHEEAVLTNIAFMESVHAKSYSNIFMTLASTAEINDAFRWSEENENLQRKAKIILSYYEGDDPLKRKIASVILESFLFYSGFYLPMYWSSHSKLTNTADVIRLIIRDEAVHGYYIGYKYQKAVAKETPERQEELKEYTFDLLYDLYDNETQYSEDLYDDLGWTEDVKRFLRYIANKALNNLGYEGLFPADETKVSPNILSALSPNADENHDFFSGSGSSYVIGKAENTEDDDWDF
B1: the “enzyme activity ratio (Y1) of each type” value in data set [1] (setting [3]) is at least 10. The specific activity in data set [2] came out at 0.3 U/μL.

B2: nucleoside diphosphate kinase aqueous solution (D4-1-2): nucleoside diphosphate kinase, SEQ ID NO: 8, derived from rat pancreas (protein)
chain: LSGIAVAFLLLLLCYHRSSGPRIQVANPHNWRMVHQVAGELYNDTYPLTPPLRTPEGLRYHIAIIADLDTDSRSAKANTWVSYLKRGYLTLSSSGDHVAVEWEKEDIVLETHLAEKGRGMELSELIVFNGKLYSVDDRTGVVYRIEGSKAVPWVILTDGDGTVGKGFKAEWLAVKDEQLYVGGLGKEWTTTSGVVLNENPEWVKVIGPRGDTQHHNWVSNYNQLRSAAGIQPPGYLIHESAAWSDSLKSWFFLPRRASQEQYSEKEDEKRGSNILLRATPDFSDIKMSHVGTLNPTHGFSSFKFIPGTDDQIIVALKSEEDNGKVATYITAFTLDGRILLPETKVGNVKYEGIEFI
modifications: Rat pancreas
As to B2, the “enzyme activity ratio (Y1) of each type” value in data set [1] (setting [4]) is at least 10. In data set [2], this molecule had a specific activity of 0.3 U/μL.

B3: apyrase aqueous solution (D2-1): apyrase, SEQ ID NO: 7, derived from xenopus (protein, listed as Xenopus laevis)
chain: MKSPQVECKESMSPLRISVAGLPVLASMTKTADPRFRPRWRAILLSGIAVAFLLLLLCYHRSSGPRIQVANPHNWRMVHQVAGELYNDTYPLTPPLRTPEGLRYHIAIIADLDTDSRSAKANTWVSYLKRGYLTLSSSGDHVAVEWEKEDIVLETHLAEKGRGMELSELIVFNGKLYSVDDRTGVVYRIEGSKAVPWVILTDGDGTVGKGFKAEWLAVKDEQLYVGGLGKEWTTTSGVVLNENPEWVKVIGPRGDTQHHNWVSNYNQLRSAAGIQPPGYLIHESAAWSDSLKSWFFLPRRASQEQYSEKEDEKRGSNILLRATPDFSDIKMSHVGTLNPTHGFSSFKFIPGTDDQIIVALKSEEDNGKVATYITAFTLDGRILLPETKVGNVKYEGIEFI
With B3, the “enzyme activity ratio (Y1) of each type” value in data set [1] (setting [3]) is on record as at least 10. Also, the specific activity in data set [2] was 0.3 U/μL.

B4: nucleotidase aqueous solution (D3-1): nucleotidase, SEQ ID NO: 5, derived from Escherichia coli (protein, listed as Escherichia coli)
chain: MKQSHFFAHLSRLKLINRWPLMRNVRTENVSEHSLQVAMVAHALAAIKNRKFGGNVNAERIALLAMYHDASEVLTGDLPTPVKYFNSQIAQEYKAIEKIAQQKLVDMVPEELRDIFAPLIDEHAYSDEEKSLVKQADALCAYLKCLEELAAGNNEFLLAKTRLEATLEARRSQEMDYFMEIFVPSFHLSLDEISQDSPL
Turning to B4, the “enzyme activity ratio (Y1) of each type” value in data set [1] (setting [3]) is on record as at least 10. In data set [2], this molecule returned a specific activity of 0.3 U/μL.

B5: arginine kinase aqueous solution (D4-1-3): arginine kinase, SEQ ID NO: 9, derived from Toxoplasma gondii (protein, listed as Toxoplasma gondii)
chain: MLSAASPALARKSFDFRGSALRHFSSSGGHRGSSDTKISPGHSDKSGEPLDLPVFTSTKQIATIGPASWDYEEIERLFLAGVDVFRLNMSHGLLTEKHQQLLHVRHLEKVYKHPIAVLADLPGPKFRLGVFNNDEATLETGKSFILDSSTQPGDASRVQLPHPEILSVLRPDDIVLMDDGKVKLRVTEVFADTTALSRGLGDIESVSHTASPGSSVVRAPAVRCTVLVGGRISSKKGVNVPSARLPISALSARDRELARTVASWGVDWIALSFVQSADDVHELRRELREAAEAAGSTTAQYAAEQNRSESHVDRGDASGAGCRIRPDISVMVKIEKPIALENIAEIVAAADGIMVARGDLGVELPNIAWLPRVQKRLVSLCREAGKPVVVATQMLESMMQAPLPTRAEVSDVANAVYDGADAVMLSGETAAGNAPARVACMQRLGIEGVENDPSFWELEDQRRQARLRAAERCASTGTSALRVPRASKGREQELEKGSELQGESRDRTEEILSRFLPGRREHLAFSEADRQGNTSGDTNQGTSKTEQGADESDAWVEHTAAAVARQSGAKAIVVFGENEALLQRLATLRPTAPVLAVTECVHTARRLKMYWGIYPVLLEAEDQANVESRARRPASLDDQLRLACEFARKEKFATESTDNLVVLGRLPGGRENGTNSDKTTARLTRPILTVCTLESGR
modifications: aqueous solution
Turning to B5, in data set [1] (setting [4]), the “enzyme activity ratio (Y1) of each type” value is reported as at least 10. In data set [2], the specific activity is 0.3 U/μL.
